{
  "source": "the supplement of paper PMC12764529",
  "key": {"[1]": {"assay": "folding stability dG unfold (combined trypsin and chymotrypsin); higher = more stable", "in_short": "(§1)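 Mini-proteins designed to be under 80 residues and free of cysteine were carried in a PA-tagged cDNA display construct and digested with trypsin and with chymotrypsin. Each protease was applied at 11 threefold-diluted concentrations, alongside a no-protease condition, before sequencing. K50 came from Bayesian fitting of the sequencing counts, and unfolding free energy was obtained by comparing it with a sequence-predicted unfolded-state K50 and a shared folded-state K50, for each protease separately or for both together. Designs were retained only if their AlphaFold2 dimer inter-PAE exceeded 15.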"}, "[2]": {"assay": "folding stability dG unfold from trypsin proteolysis; higher = more stable", "in_short": "as §1"}, "[3]": {"assay": "folding stability dG unfold from chymotrypsin proteolysis; higher = more stable", "in_short": "as §1"}},
  "note": "± gives the half width of the 95% confidence interval.",
  "data": [
    {"sequence": "SAGGSAGGSAMTIKVEVTVKVKVKLENGETKEKEVKVTVEIELPPLTKEELEKNKELLKKLLSAGGSAGGSA [r18_114_TrROS_Hall]", "values": [
      {"measurement": "folding stability dG unfold", "setting": "[1]", "result": "2.42 ± 0.16", "unit": "kcal/mol"},
      {"measurement": "folding stability dG unfold", "setting": "[2]", "result": "2.42 ± 0.14", "unit": "kcal/mol"},
      {"measurement": "folding stability dG unfold", "setting": "[3]", "result": "2.53 ± 0.08", "unit": "kcal/mol"}
    ]},
    {"sequence": "SAGGSAGGSAMTPDETRTVVVEEELPNGEPVVRVTDVRTLPDGSLETLGERVITREELEERSAGGSAGGSAG [r3_212_JUSTAS]", "values": [
      {"measurement": "folding stability dG unfold", "setting": "[1]", "result": "0.394 ± 0.11", "unit": "kcal/mol"},
      {"measurement": "folding stability dG unfold", "setting": "[2]", "result": "-0.438 ± 0.2", "unit": "kcal/mol"},
      {"measurement": "folding stability dG unfold", "setting": "[3]", "result": "0.743 ± 0.064", "unit": "kcal/mol"}
    ]},
    {"sequence": "SAGGSAGGSAMTPEELLKAAEELAKKLNLKVEIEVKKNENGELTITVKVYKNGKLVKEFEIKSAGGSAGGSA [r18_369_TrROS_Hall]", "values": [
      {"measurement": "folding stability dG unfold", "setting": "[1]", "result": "4.82 ± 0.16", "unit": "kcal/mol"},
      {"measurement": "folding stability dG unfold", "setting": "[2]", "result": "3.06 ± 0.089", "unit": "kcal/mol"},
      {"measurement": "folding stability dG unfold", "setting": "[3]", "result": "4.9 ± 0.11", "unit": "kcal/mol"}
    ]},
    {"sequence": "SAGGSAGGSAMTPETIKEKYPNVDYSPSPLGGKTVYTFTFPSGSTVTVTFNPGSATITTIAGSAGGSAGGSA [r18_13_JUSTAS]", "values": [
      {"measurement": "folding stability dG unfold", "setting": "[1]", "result": "2.96 ± 0.11", "unit": "kcal/mol"},
      {"measurement": "folding stability dG unfold", "setting": "[2]", "result": "2.26 ± 0.13", "unit": "kcal/mol"},
      {"measurement": "folding stability dG unfold", "setting": "[3]", "result": "3.38 ± 0.07", "unit": "kcal/mol"}
    ]},
    {"sequence": "SAGGSAGGSAMTVSIPPEVITSVEYDPSTNKVTITPSDGSVKTYDVESPEEVFKANNIGPESAGGSAGGSAG [r3_34_JUSTAS]", "values": [
      {"measurement": "folding stability dG unfold", "setting": "[1]", "result": "0.753 ± 0.095", "unit": "kcal/mol"},
      {"measurement": "folding stability dG unfold", "setting": "[2]", "result": "0.887 ± 0.044", "unit": "kcal/mol"},
      {"measurement": "folding stability dG unfold", "setting": "[3]", "result": "0.648 ± 0.11", "unit": "kcal/mol"}
    ]},
    {"sequence": "SAGGSAGGSAMTVTITHDVPPDVSVTVTVTSNNKKIPVSTPSRAASATIPSSEVSSLEIVPSSAGGSAGGSA [r18_170_JUSTAS]", "values": [
      {"measurement": "folding stability dG unfold", "setting": "[1]", "result": "0.496 ± 0.12", "unit": "kcal/mol"},
      {"measurement": "folding stability dG unfold", "setting": "[2]", "result": "-0.362 ± 0.29", "unit": "kcal/mol"},
      {"measurement": "folding stability dG unfold", "setting": "[3]", "result": "0.792 ± 0.043", "unit": "kcal/mol"}
    ]},
    {"sequence": "SAGGSAGGSAMVIEDPKTNKLIEVEKLPDGTYKVTIYDKKTGEKKTITMSKKDLEKLLKALSAGGSAGGSAG [r3_162_TrROS_Hall]", "values": [
      {"measurement": "folding stability dG unfold", "setting": "[1]", "result": "4.81 ± 0.36", "unit": "kcal/mol"},
      {"measurement": "folding stability dG unfold", "setting": "[2]", "result": "4.91 ± 0.44", "unit": "kcal/mol"},
      {"measurement": "folding stability dG unfold", "setting": "[3]", "result": "4.78 ± 0.14", "unit": "kcal/mol"}
    ]},
    {"sequence": "SAGGSAGGSAMVILTPDGYLKVIKSITVEEALDPETDEPVLDVKAEVEVIPLPSLDDPAFKESAGGSAGGSA [r18_6_TrMRF]", "values": [
      {"measurement": "folding stability dG unfold", "setting": "[1]", "result": "0.396 ± 0.24", "unit": "kcal/mol"},
      {"measurement": "folding stability dG unfold", "setting": "[2]", "result": "0.251 ± 0.076", "unit": "kcal/mol"},
      {"measurement": "folding stability dG unfold", "setting": "[3]", "result": "0.447 ± 0.087", "unit": "kcal/mol"}
    ]},
    {"sequence": "SAGGSAGGSAMVRIEFENGLVAEFPSDLPLEEVKEKAVELAKLLSNDKKPVKVKILDIKEEGSAGGSAGGSA [r18_213_TrMRF]", "values": [
      {"measurement": "folding stability dG unfold", "setting": "[1]", "result": "0.407 ± 0.17", "unit": "kcal/mol"},
      {"measurement": "folding stability dG unfold", "setting": "[2]", "result": "0.14 ± 0.15", "unit": "kcal/mol"},
      {"measurement": "folding stability dG unfold", "setting": "[3]", "result": "0.763 ± 0.09", "unit": "kcal/mol"}
    ]},
    {"sequence": "SAGGSAGGSAMVVEIKPEKLPNGKYKVTVTITDPSTGKTTTTPYIVDPNKFTEEDIKKKLSSAGGSAGGSAG [r3_127_JUSTAS]", "values": [
      {"measurement": "folding stability dG unfold", "setting": "[1]", "result": "1.58 ± 0.098", "unit": "kcal/mol"},
      {"measurement": "folding stability dG unfold", "setting": "[2]", "result": "1.37 ± 0.055", "unit": "kcal/mol"},
      {"measurement": "folding stability dG unfold", "setting": "[3]", "result": "1.5 ± 0.077", "unit": "kcal/mol"}
    ]},
    {"sequence": "SAGGSAGGSANAKIPDGQKVTLDFRVMIMMRMWQFDENGGKMEPRMMMIPIEVEIEIKIPPNASAGGSAGGS [r12_668_TrROS]", "values": [
      {"measurement": "folding stability dG unfold", "setting": "[1]", "result": "4.71 ± 0.14", "unit": "kcal/mol"},
      {"measurement": "folding stability dG unfold", "setting": "[2]", "result": "3.46 ± 0.1", "unit": "kcal/mol"},
      {"measurement": "folding stability dG unfold", "setting": "[3]", "result": "5.06 ± 0.14", "unit": "kcal/mol"}
    ]},
    {"sequence": "SAGGSAGGSANYMIKITIEYTPPNGKKEEVEVTVPGMPIDQLLNNLPPEYPVEIKDIEIYPGSAGGSAGGSA [r18_32_TrROS]", "values": [
      {"measurement": "folding stability dG unfold", "setting": "[1]", "result": "0.326 ± 0.11", "unit": "kcal/mol"},
      {"measurement": "folding stability dG unfold", "setting": "[2]", "result": "0.251 ± 0.024", "unit": "kcal/mol"},
      {"measurement": "folding stability dG unfold", "setting": "[3]", "result": "0.154 ± 0.12", "unit": "kcal/mol"}
    ]},
    {"sequence": "SAGGSAGGSAPDIKILEPLEVDPDNGMITLKIELPGDGKVHEAIFFNPDGEPMMKFTIEIPKSAGGSAGGSA [r18_296_TrROS]", "values": [
      {"measurement": "folding stability dG unfold", "setting": "[1]", "result": "0.299 ± 0.3", "unit": "kcal/mol"},
      {"measurement": "folding stability dG unfold", "setting": "[2]", "result": "0.219 ± 0.094", "unit": "kcal/mol"},
      {"measurement": "folding stability dG unfold", "setting": "[3]", "result": "0.358 ± 0.31", "unit": "kcal/mol"}
    ]},
    {"sequence": "SAGGSAGGSAPEVKIKVELFENENGELTATATIEVDGKLYKITVKFDKNGKIVEVKIEELPSAGGSAGGSAG [r3_165_TrROS_Hall]", "values": [
      {"measurement": "folding stability dG unfold", "setting": "[1]", "result": "4.14 ± 0.45", "unit": "kcal/mol"},
      {"measurement": "folding stability dG unfold", "setting": "[2]", "result": "2.83 ± 0.22", "unit": "kcal/mol"},
      {"measurement": "folding stability dG unfold", "setting": "[3]", "result": "4.39 ± 0.27", "unit": "kcal/mol"}
    ]},
    {"sequence": "SAGGSAGGSAPGSMLRIPVSEEELKKKGLTPEELAKEIRERYPELPESVVVEFPPDGNIVIVESAGGSAGGS [r12_50_JUSTAS]", "values": [
      {"measurement": "folding stability dG unfold", "setting": "[1]", "result": "1 ± 0.16", "unit": "kcal/mol"},
      {"measurement": "folding stability dG unfold", "setting": "[2]", "result": "0.906 ± 0.05", "unit": "kcal/mol"},
      {"measurement": "folding stability dG unfold", "setting": "[3]", "result": "0.885 ± 0.056", "unit": "kcal/mol"}
    ]},
    {"sequence": "SAGGSAGGSAPKILIVEDEKTGKLYAFVYDKDTKELYVAEFTYDKKTKKLTVKIKKVSLEDLSAGGSAGGSA [r18_505_TrROS_Hall]", "values": [
      {"measurement": "folding stability dG unfold", "setting": "[1]", "result": "4.19 ± 0.26", "unit": "kcal/mol"},
      {"measurement": "folding stability dG unfold", "setting": "[2]", "result": "2.88 ± 0.09", "unit": "kcal/mol"},
      {"measurement": "folding stability dG unfold", "setting": "[3]", "result": "4.67 ± 0.18", "unit": "kcal/mol"}
    ]},
    {"sequence": "SAGGSAGGSAPKPKTKTIMFRFPGTPEDALDIAKEIANYFNDRGLEIEVERHPNGYIMITFPSAGGSAGGSA [r18_262_TrROS]", "values": [
      {"measurement": "folding stability dG unfold", "setting": "[1]", "result": "2.61 ± 0.065", "unit": "kcal/mol"},
      {"measurement": "folding stability dG unfold", "setting": "[2]", "result": "2.11 ± 0.059", "unit": "kcal/mol"},
      {"measurement": "folding stability dG unfold", "setting": "[3]", "result": "2.82 ± 0.034", "unit": "kcal/mol"}
    ]},
    {"sequence": "SAGGSAGGSAPLRFEFELPGNYRVRIELEPVPDDPSAGPRYRLRIEVFDLETGEVLPFEIDGSAGGSAGGSA [r18_66_TrMRF]", "values": [
      {"measurement": "folding stability dG unfold", "setting": "[1]", "result": "3.74 ± 0.061", "unit": "kcal/mol"},
      {"measurement": "folding stability dG unfold", "setting": "[2]", "result": "2.75 ± 0.065", "unit": "kcal/mol"},
      {"measurement": "folding stability dG unfold", "setting": "[3]", "result": "4.18 ± 0.064", "unit": "kcal/mol"}
    ]}
  ]
}
